Source: PMC5736350

Target: CLASPIN (UniProt Q9HAW4)
Experiment: anti-myc co-immunoprecipitation
Conditions: reference: wild-type RAD9-mH; sites T313

## RAD9 (from UniProt Q99638) RAD9-T313A-mH
  binding against the reference: stronger
